Data reported in US20230203204A1 (published 2023).

Molecular target: T1, recombinant human RANKL-murine Fc fusion protein (Sino Biological Inc.) (human, UniProt O14788 136-317, limits assumed)
T1 construct: Bought; not shown: murine Fc
T1 sequence (looked up): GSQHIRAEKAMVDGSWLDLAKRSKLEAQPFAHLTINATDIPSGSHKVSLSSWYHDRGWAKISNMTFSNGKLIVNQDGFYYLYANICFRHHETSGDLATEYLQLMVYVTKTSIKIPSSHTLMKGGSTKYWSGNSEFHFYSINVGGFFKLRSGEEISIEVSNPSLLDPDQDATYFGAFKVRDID
Assay: ELISA, human RANKL-murine Fc coated at 1 ug/mL, fusion protein titrated, anti-human IgG Fc-AP detection

EC50: 0.04 µg/mL
B1: OPG-Fc (Sino Biological Inc.) (Fc fusion, UniProt O00300 22-401, looked up)
chain: ETFPPKYLHYDEETSHQLLCDKCPPGTYLKQHCTAKWKTVCAPCPDHYYTDSWHTSDECLYCSPVCKELQYVKQECNRTHNRVCECKEGRYLEIEFCLKHRSCPPGFGVVQAGTPERNTVCKRCPDGFFSNETSSKAPCRKHTNCSVFGLLLTQKGNATHDNICSGNSESTQKCGIDVTLCEEAFFRFAVPTKFTPNWLSVLVDNLPGTKVNAESVERIKRQHSSQEQTFQLLKLWKHQNKDQDIVKKIIQDIDLCENSVQRHIGHANLTFEQLRSLMESLPGKKVGAEDIEKTIKACKPSDQILKLLSLWRIKNGDQDTLKGLMHALKHSKTYHFPKTVTQSLKKTIRFLHSFTMYKLYQKLFLEMIGNQVQSVKISCL
notes: not shown: Fc part of the bought product
